The stoichiometry N is the number of molecules, sites or subunits per partner or assembly.

Residue numbers refer to the chain shown, from its start. Names may count otherwise.

We go through five molecules from article PMC3737525, “Structural and mechanistic basis of anti-termination of Rho-dependent transcription termination by bacteriophage P4 capsid protein Psu” (Nucleic Acids Research, 2013).

Data set [1] concerns the target T1, C-terminal, HMK-tagged P167L Rho, 32P-labelled (UniProt P0AG30 1-419, P167L, radiolabelled with [γ-32P]ATP in the HMK tag using protein kinase A).
T1 construct: Transcription termination factor Rho; also called P^32-labelled HMK-tagged P167L Rho; end-labelled Rho; not shown: HMK (heart muscle protein kinase) tag, C-terminal, kept
Nature of the data set: Fe-BABE hydroxyl-radical protein cleavage; 0.2 µM 32P-labelled HMK-tagged P167L Rho and 2.5 µM Fe-BABE-labelled Psu, 37°C 30 min, 50 mM MOPS, 120 mM NaCl, 0.1 mM EDTA, 10 mM MgCl2, 10% glycerol, pH 8.0, 1 mM ATP; cleavage started with 4 mM ascorbate and hydrogen peroxide; SDS-PAGE autoradiogram. To be noted: both partners purified.

For data set [2], the target named is T1, C-terminal, HMK-tagged P167L Rho, …. The experiment in a line: limited trypsin digestion (protein foot-printing); 0.2 µM 32P-labelled HMK-tagged P167L Rho with 2.5 µM WT Psu in transcription buffer with 1 mM ATP, 10 min 37°C, then increasing trypsin for 1 min; gradient SDS-PAGE autoradiogram. To be noted: both partners purified.
The target in data set [3] is T2, Single Cys derivative S346C of P167L Rho (UniProt P0AG30 1-419, P167L | C202S | S346C).
T2 construct: Transcription termination factor Rho; natural cysteine removed, made on P167L Rho; also called S346C Rho
T2 sequence (P0AG30 whole entry P167L/C202S/S346C): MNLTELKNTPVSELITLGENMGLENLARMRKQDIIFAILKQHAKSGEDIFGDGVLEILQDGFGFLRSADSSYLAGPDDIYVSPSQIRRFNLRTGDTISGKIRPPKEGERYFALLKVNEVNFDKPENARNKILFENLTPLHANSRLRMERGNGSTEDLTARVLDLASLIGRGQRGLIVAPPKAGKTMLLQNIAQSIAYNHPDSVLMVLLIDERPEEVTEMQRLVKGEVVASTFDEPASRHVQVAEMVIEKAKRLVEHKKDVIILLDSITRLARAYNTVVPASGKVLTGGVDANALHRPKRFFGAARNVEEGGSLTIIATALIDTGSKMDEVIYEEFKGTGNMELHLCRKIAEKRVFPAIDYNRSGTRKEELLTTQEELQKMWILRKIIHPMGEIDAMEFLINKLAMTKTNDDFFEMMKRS
The experiment in a line: cross-linking; sulpho-LC-SPDP (cysteine to amine): SPDP-derivatized 32P-labelled Psu (~0.5 µM) with single-Cys Rho derivatives (~2 µM), 10 min 25°C, phosphate buffer (100 mM NaH2PO4, 150 mM NaCl, 1 mM EDTA, pH 7.5); non-reducing 12% PAGE; species sensitive to DTT. To be noted: both partners purified.

Data set [4] deals with the molecule itself. Described as above.
In data set [5] the target is T3, Single Cys derivative S153C of P167L Rho (UniProt P0AG30 1-419, P167L | C202S | S153C).
T3 construct: Transcription termination factor Rho; natural cysteine removed, made on P167L Rho; also called S153C Rho
T3 sequence (P0AG30 whole entry S153C/P167L/C202S): as the sequence (P0AG30 whole entry P167L/C202S/S346C) above, with S153C, C346S counted along it
The description is as above. To be noted: both partners purified.

The target in data set [6] is T4, TMRA-labelled S346C Rho (on P167L Rho) (UniProt P0AG30 1-419, P167L | C202S | S346C, tetramethylrhodamine-5-maleimide (TMRA) on the single cysteine at 346).
T4 construct: Transcription termination factor Rho; natural cysteine removed, made on P167L Rho; also called TMRA–Rho S346C; source: labelled with tetramethylrhodamine-5-maleimide, excess dye removed
T4 sequence (P0AG30 whole entry P167L/C202S/S346C): as the sequence (P0AG30 whole entry P167L/C202S/S346C) above
Nature of the data set: FRET or BRET; fluorescein-labelled Psu (50 nM) and TMRA-labelled Rho (100 nM), 25 mM Tris-HCl pH 8.0, 50 mM KCl, 5 mM MgCl2, 25°C, 15 min; excitation 470 nm, emission enhancement at 570 nm. To be noted: both partners purified. On the technique in general: In BRET a luciferase serves as donor, and the signal depends on an acceptor being close.

Data set [7] deals with T5, TMRA-labelled S153C Rho (on P167L Rho) (UniProt P0AG30 1-419, P167L | C202S | S153C, tetramethylrhodamine-5-maleimide (TMRA) on the single cysteine at 153).
T5 construct: Transcription termination factor Rho; natural cysteine removed, made on P167L Rho; also called TMRA–Rho S153C; source: labelled with tetramethylrhodamine-5-maleimide, excess dye removed
T5 sequence (P0AG30 whole entry S153C/P167L/C202S): as the sequence (P0AG30 whole entry P167L/C202S/S346C) above, with S153C, C346S counted along it
The description is as above. To be noted: both partners purified.

T1 sequence (P0AG30 whole entry P167L): as the sequence (P0AG30 whole entry P167L/C202S/S346C) above, with S202C, C346S counted along it

B1: Fe-BABE-conjugated Psu S181C (natural protein, bacteriophage P4)
chain: MESTALQQAFDTSQNNKAAWLQRKNELAAAEQEYLRLLSGEGRNVSRLDELRNIIEVRKWQVNQAAGRYIRSHEAVQHISIRDRLNDFMQQHGTALAAALAPELMGYSELTAIARNSAIQRATDALREALLSWLAKGEKINYSAQDSDILTTIGFRPDVASVDDSREKFTPAQNMIFSRKCAQLASRQSV
modifications: Fe-BABE conjugated to the single cysteine at 181
notes: Psu (polarity suppressor), capsid-decoration protein of bacteriophage P4; natural cysteines removed; also called Fe-BABE-labelled Psu; source: conjugated with 5-fold molar excess of Fe-BABE (Pierce), desalted
Turning to B1, the binding result in data set [1] is recorded as “binds”.

B2: WT Psu (in vitro assays) (natural protein, bacteriophage P4)
chain: B1 chain with S13C, S117C, C181S
notes: Psu (polarity suppressor), 21 kDa capsid-decoration protein of bacteriophage P4; purification may stand in the Supplementary Methods
With B2, the binding result in data set [2] was “binds”.

B3: SPDP-derivatized, HMK-tagged non-cysteine derivative of Psu (C13S and C117S) (natural protein, bacteriophage P4)
chain: B1 chain with C181S
modifications: 32P end-label in the HMK tag; primary amines (lysines) labelled with sulpho-LC-SPDP
notes: Psu (polarity suppressor), capsid-decoration protein of bacteriophage P4; natural cysteines removed; also called SPDP-labelled Psu; radiolabelled Psu; source: labelled with sulpho-LC-SPDP (Pierce), desalted
With B3, the binding result in data set [3] and in data set [5] was “binds” throughout. Further, the “stoichiometry N” value in data set [4] came to 2.

B4: Fluorescein-labelled Psu S181C (natural protein, bacteriophage P4)
chain: B1 chain
modifications: fluorescein-5-maleimide on the single cysteine at 181
notes: Psu (polarity suppressor), capsid-decoration protein of bacteriophage P4; natural cysteines removed; also called FL-labelled S181C Psu; source: labelled with fluorescein-5-maleimide, excess dye removed
With B4, the binding result in data set [6] and in data set [7] was “binds” each time.

B5: Fluorescein-labelled Psu S161C (natural protein, bacteriophage P4)
chain: B1 chain with S161C, C181S
modifications: fluorescein-5-maleimide on the single cysteine at 161
notes: Psu (polarity suppressor), capsid-decoration protein of bacteriophage P4; natural cysteines removed; also called FL-labelled S161C Psu; source: labelled with fluorescein-5-maleimide, excess dye removed
B5: the binding result in data set [6] and in data set [7] was “binds” each time.
